The sequences below were run on MS2 coat protein (assay: apparent KD of MS2 coat protein; designed switch direction (-1 OFF switch, 1 ON switch): 1; higher = weaker reporter binding). Details: Eterna round: R98; input ligand: FMN 200 uM.
Procedure: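 RNA-MaP: designed FMN/MS2 RNA switches (84 nt design region) are transcribed on-chip within common flanks and titrated with SNAP-549-labelled MS2 coat protein (about 1-3000 nM) in 100 mM Tris pH 7.5, 80 mM KCl, 4 mM MgCl2, without or with 200 uM FMN. Median apparent KD per design; activation ratio = KD,OFF / KD,ON.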

Sequence | apparent KD of MS2 coat protein
GCUUGCGACGCAGGAUAUGGGUGCCUAAACACGAGGAUCACCCGUGUACAGGAAGCUAAAUGCUCUCAGAAGGGCGUCGCAGGC [United States 9 - Jieux - Same State NG 2] | 17.5 nM
CACAGGGAUUCAGGAUAUAUUAGCCGAGGCCGCGUAGAAGGGAAAUCCUGACAUGAGGAUCACCCAUGUUAACCCACCUUCCAU [Fingerlickinggood#3] | 22.9 nM
AUAAUAACUUGAGGAUAUCGAGUGGAAUACACUCGAGAAGGCAGGGAAACCUGAGGAUCACCCAGGUAAAUAAUAAUAAUAAUA [Same State NG1 - A3C, U17G Submission 1C] | 22.7 nM
UUCAAAGGGUGAGGAUAUGCACAGGAUCACCGUGUAGAAGGCAUCAGGUAGAAGGUGCAGAGGAUCACCCUGUAAGGAUAUAUC [pwkr2 ssNG1 DX.15] | 719 nM
GCAAAUGGGCGAGGAUAUGGGACGGGCCUAAACAGGGCACAUGAGGAUCACCCAUGUCACACGACCCAGAAGGCGCUAAGAACG [Bemave] | 144 nM

Same assay, conditions: Eterna round: R98; input ligand: none

Sequence | apparent KD of MS2 coat protein
GCUUGCGACGCAGGAUAUGGGUGCCUAAACACGAGGAUCACCCGUGUACAGGAAGCUAAAUGCUCUCAGAAGGGCGUCGCAGGC [United States 9 - Jieux - Same State NG 2] | 46.7 nM
CACAGGGAUUCAGGAUAUAUUAGCCGAGGCCGCGUAGAAGGGAAAUCCUGACAUGAGGAUCACCCAUGUUAACCCACCUUCCAU [Fingerlickinggood#3] | 27.3 nM
AUAAUAACUUGAGGAUAUCGAGUGGAAUACACUCGAGAAGGCAGGGAAACCUGAGGAUCACCCAGGUAAAUAAUAAUAAUAAUA [Same State NG1 - A3C, U17G Submission 1C] | 21.3 nM
UUCAAAGGGUGAGGAUAUGCACAGGAUCACCGUGUAGAAGGCAUCAGGUAGAAGGUGCAGAGGAUCACCCUGUAAGGAUAUAUC [pwkr2 ssNG1 DX.15] | 1020 nM
GCAAAUGGGCGAGGAUAUGGGACGGGCCUAAACAGGGCACAUGAGGAUCACCCAUGUCACACGACCCAGAAGGCGCUAAGAACG [Bemave] | 399 nM

These sequences were tested on MS2 coat protein (assay: apparent KD of MS2 coat protein, switch ON state; designed switch direction (-1 OFF switch, 1 ON switch): 1; higher = weaker reporter binding). Details: FMN input: 0 or 200 uM; Eterna round: R93 (includes R88 designs).
Summary of the method: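 With or without constant ligand, designed RNA switches in 100 mM Tris-HCl pH 7.5, 80 mM KCl and 4 mM MgCl2 were titrated with SNAP-549-labelled MS2 coat protein. Concentrations went up in twofold steps from 0.7 or 1.5 nM to 3 µM. The switches had been transcribed on-chip from Illumina sequencing clusters, and apparent KD is the per-design median of normalised cluster binding-curve fits.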

Sequence | apparent KD of MS2 coat protein
AUUACAUCUAGUUAGGAUAUCAGAUGUAAGACAUGAGGAUCACCCAUGUCCUAAGAAUAGGUAACUGAGAAGGAACAGGGAGUAU [JR_SS002_Sub418] | 23.4 nM
GACCGACAUGAGGAUCACCCAUGUCGGAAAAGGCAAGGAUAUGGGCGGUACCAAUUUCGGUCAGAAGGUGCAAAAG [Aatisri] | 12.4 nM
AAAAAACAUGAGGAUCACCCAUGUGAGAACACGGGAGGAUAUACGAAGACGAAAGUCGAAGUAGAAGGCCUAAAAA [Garnet 82] | 21.2 nM
AGGAAACAUGAGGAUCACCCAUGUAAGAUAAACACAGGAUAUGCGAAAAGAAACAAAGAAGCAGAAGGGUGAAGAA [75%, Ex5 sub 1, 1] | 20.6 nM
AACAUACAUGAGGAUCACCCAUGUUAGGUGGGACUAGGAUAUCAAUCGAAAGUGUUAUAAUGAGAAGGAGUAUAAA [JR_SS001_Sub015] | 127 nM
AAAAAAAAGCCCAAGGAUAUCCGGAUGAAGACAUGAGGAUCACCCAUGUGAAAAAAAAAAUAUGAGGAGAAGGUGGGAAAAAAAAA [Esgemaedso] | 63.4 nM
AAUAAAAAUAGUUAGGAUAUGAGAAUUAAGACAUGAGGAUCACCCAUGUAAUUAAAACAAGUAAAUCAGAAGGGACAGGGUGAAA [JR_SS002_Sub204] | 99.4 nM
GGAGAACAUGAGGAUCACCCAUGUCGGAGAAGGCGAGGAUAUCGAAGGAGGAAGGAAGGACGAGAAGGCGCGGCAG [salish99-SS1-01] | 15.9 nM
AAAACACAUGAGGAUCACCCAUGUAAAAACAUGAGAGGAUAUGCAUGGAAAACAUGCUAUGCAGAAGGCUCAUGUG [SS1 - 3] | 23.2 nM
AGAAAUAAAAGAGAGGAUAUCUUAAAGAAAACAUGAGGAUCACCCAUGUAAAAGAAAAUAAAAUGGGAGAAGGCUCAUAAUAAAG [JL Skelter Mod 4 In the Red] | 151 nM
GAGGACCUAGGAUAGGAUAUAUGAAUAAUUACAUGAGGAUCACCCAUGUCCAUUUAUAUGGGAACAUAGAAGGGUUCUGGUUAUC [SameState2 Malc#37] | 36.9 nM
AAGAAACAUGAGGAUCACCCAUGUGAGAAUAACACAGGAUAUGCAAAAGAAAGAAAGAAAGCAGAAGGGUGAAGAA [Mat - Same State 1 - Tesla mod - 53] | 23.3 nM
AAUAUAUUAAGUGAGGAUAUCGAGGAAAAAACAUGAGGAUCACCCAUGUGGGAAACAUGGUAGGGUGAGAAGGUACUUAAUAUAU [Samwise Clockwise 23 - Jieux - Same State 2] | 218 nM
AGAAAACAUGAGGAUCACCCAUGUAGAAAUAUGGGAGGAUAUACAAAGACGAAAGUCGAAGUAGAAGGCCUAAAGA [Mat - Same State 1 - Meechl mod - D123] | 22 nM
CGGAGACAUGAGGAUCACCCAUGUGAGAAGAGGCGAGGAUAUCGAAAGAAAGAAGAGAAACGAGAAGGCGCGAGUG [salish99-SS1-074] | 21.9 nM
AAUGAACAUGAGGAUCACCCAUGUUUUAAUAGUUGAGGAUAUAUGGGUGAAAAUAGCACAGUAGAAGGCGAGUGUA [SameState1 Malc#16] | 144 nM
GAAAAACAUGAGGAUCACCCAUGUAGAAAUAUGGAAGGAUAUACAAAGACGAAACUGAAAGUAGAAGGUCUAAAAG [Garnet 95] | 23.2 nM
CGCCAAUUGGCACAGGAUAUGAGCAUGCUCACAUGAGGAUCACCCAUGUGAUUACCAACGCAAAAUCAGAAGGGUGCCCUCGUCA [Beanza] | 69 nM
AAUAGGAAGAGAGAGGAUAUCCAAAGGAAAACAUGAGGAUCACCCAUGUAAAAGGUAGGAAAUUGGGAGAAGGCUCAAGAGAGAG [salish99-ss2-073] | 9.55 nM
AACACGCGGGCGCAGGAUAUGUCGCUGGUGACAUGAGGAUCACCCAUGUAUACCAUUGCGGUUGAGCAGAAGGGUGAGAUGCGUG [Beisesanxe] | 15.9 nM
AAGAAAGUUUACGAGGAUAUGUUCCGCAGAACAUGAGGAUCACCCAUGUGAACAAGAAAGGCGACGCAGAAGGCGUGAGCAAAGA [Anvedi] | 35.9 nM
AAAAAAAAAAGUGAGGAUAUGUGAUCGGUGACAUGAGGAUCACCCAUGUGAGGCCUUCGGGCCGGACAGAAGGCACAAAAAAAAA [Same State 2-X] | 78.1 nM

From the supplement of paper PMC9170038
